Target: T1, HLA-A*2601 (human)
T1 construct: purified HLA molecule
Assay: inhibition of 125I-labelled probe peptide binding to purified HLA, gel filtration; standard peptide

B1: standard peptide ETFGFEIQSY (peptide)
peptide: ETFGFEIQSY
- IC50: 1 nM

Source: patent US20070014810A1 (published 2007)
